From the domain aggregation screens of Martell et al. (2025)

Assay: soluble fraction after stress (log2 fold change); higher = more stays soluble; pooled small domains, quantitative proteomics
Conditions: stress: 75 degC
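Further: 20 min heating vs room temperature control held 20 min.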

| Sequence | soluble fraction (log2) |
| --- | --- |
| HMSSNLTVFTRNNAIIVNSDVVRKLNVFAVDGRLVRSVDLSVGENVINNISRGMYLIDKQKVVV | -2.77 |
| HMSSPDMSLLYSELDVKDSGQIVTILEQRNIPYEVRNNGSQIYIPSNNVQRIRLSLAQEGLPSG | 0.111 |
| HMSSPTAKATGSSVNIRKSASTGAAVLKRVEKGTVLEAVSISDGWVKVKYSGVTGYVSADYVKVSGL | -2.19 |
| HMSSQGQNTKTGTVTASALYVRSGAGTNYSQIGYLLKNTKVEIVGQTGSWYKIKFGSGTGYVSSKYIK | -2.69 |
| HMSSQLETTFATLIGKRVSIRLHDPEGGFRDILGHLESPYSLRNRHGNLIEFAHDQIFLWREVI | -1.82 |
| HMSSRNLIIFYDSPQAENALLATAERYGAILLHHYRNLHGIAVAIPADKDMAQAVTYFSRQPGVRQV | -2.56 |
| HMSSSKVAISQFEELVDQGQVREVVIEGSTATGTTAAGRRFAAEIPPGGMELFLSKLDDAGTTYEYSPP | 0.822 |
| HMSSSYTEMQLDKLKKLLEKETLLSSEKSELKSLIHDFDKIPEVVSPLIVGEYLRLKNKYIAVINSLE | -1.25 |
| HMSSSYTEMQLERFKELLNKETLLSSEKNELKNLISDFDKISEIVSPLVVGAYLQLKNEHIETINSLG | -0.507 |
| HMSSTAIQAMIRRLIDGEDPRKPLSDARLAETLKASGVPVARRTVAKYRESMSIPSSQDRLRI | -0.577 |
| HMSSTSTKTQNIVHIVKSGETLSAIASKYGVSVDNIKKWNNLSSDKLSIGQKLKINPTTQTSS | 0.29 |
| HMSSVEEILQTLGGRIRTQRLAQGISQQVLADRAGLSLGAVRQLEGSGQSGLDTLVRVLFVLGIVDEL | -2.27 |
| HMSSVHTMEVKSTTQIKVLDENKNLSSYYSMKNPVSFNYRLFFLNQDELKKLQEDLKTNNDIQSIDIKYA | -0.484 |
| HMSTALTPLTTREREVLALMAEGLTNSGIAARLVLTDRTVETHVSRILHKLGLGETTTNEHRRVLAVLRYL | -1.72 |
| HMSTASPEELRQTPERRRLIEYLREHGGHGRTSEIAAALGIDDSTASRLLRRLADNGLIVRTQYGEYTLLQ | -0.184 |
| HMSTEAVVMSSSVSVKSSPDKASTDLFVLHEGTKVRTVSELGDWREIVIADGKKGWVEARTIET | 0.756 |
| HMSTEPLALVGKTGIAATVLRPSGRIEVDDKYYDAVSLGAFIEKGEMVNIVKYENLQLYVAKL | -2.18 |
| HMSTFAQNLRALMEKRGVSQNELARSAGLTQSAINKILTGKTKQPGIDTTEAIARVLNVSVAQLIYT | -1.4 |
| HMSTFTPYLVKVTTSVLNIRKGAGTNYGTNGSIRDMGTYTIVAEADGQGASKWGKLKSGAGWISLDYTKK | -2.33 |

| Sequence | soluble fraction (log2) |
| --- | --- |
| HMSTILERLIMLQEQSGMNQKQLQKELGLSNSAFSDWKKGKGRPSVEALVRFSEFFGVSMDWLAFG | -2.27 |
| HMSTKRQKELLEYVDRFITEHGYGPSYREIMNAIGYKSVSTVAIHIDGLIAKGYLRKRDNSARSLEVV | -1.17 |
| HMSTKYSSNIISLVKGLMEEDQYKDLMGPPLKKEIIKKVESITDTFPYKFDKDDKEFIVKKVLISLRK | -1.77 |
| HMSTLKSALDEIPGIGAARKRALLNHFGSTRVISSVGVKDLEQVEGVSKKIALLIYGYFHDK | -2.57 |
| HMSTLSIHIPDKFAGQRLDQALAELYSQFSRSRLQQWLNDGELLVDGKSVKANKKVLGGEFIQILK | -1.24 |
| HMSTPENLGGRNTAKARISWLENGVKQELESDFPAAEVVKLSSRFGGEVPELTVIRPSLEDIYLKMIG | -0.00898 |
| HMSTPLVATLRKRIIDGHYPPGERLAEIPVAEAFGVSRTPVRLAFRTLEQEGLLEKAGKRGYAVRA | -0.164 |
| HMSTQVPDVKERSQEEARSILESAGFKVTPAVKTEDSADIAKDMVTKTDPAAGQSVPKGTTITIYVSS | 0.126 |
| HMSTRLIGEIGVVTKDLGAGLKENGSIQIGREEWPAETKDMEHIPMGTRVKVIHIEGTRLVVEA | -0.561 |
| HMSTSRAEIIAFLKSNPSSEYKHELETKLDEMDWAEAVKGNSEESFLAYKQRQPNGTHNGEADEKLKVLLV | -0.0423 |
| HMSTVISPLPGNIIKVLVPEGKSVKRGDTILTIESMKMENSIKAAYDGVVKKIYVQQAQIVMQGDPLFDL | -2.86 |
| HMSVALSENIKTRRKALKMSQEYVAEQLDISRQAVAKWEAGKSEPTTENLVKLAALFEMSVSELVE | -0.969 |
| HMSVDDVALRLEFGPSDAEALAFVHRHGAILSETTDRDTGVVSVHVRLSEADAGRFNQRYGV | -0.0968 |
| HMSVDDYLKFSGSGTYWNTQDRGKTYLVNGQQRPLRDKEYLPDVMHRHVIDFITKHRDRPFYIYYSM | 0.173 |
| HMSVDVEGNQRIPTEQVLSELRDVGVSFGKRVSGLNADTIRNQMIINNDEIAWLGVNVRGSRVYVEITERI | 0.125 |
| HMSVERIEPPLPLIDTLLALRDALERPLSREENAFLSRRFAGGATRAQIDALAAQFRGAAAAESKV | 0.0516 |
| HMSVETSDLLPLIEQVLSLNPDKVKEYQNGKKGLLGFFMGQIKQTAGVAIDVGTLKPLLEDALHKDL | -0.861 |
| HMSVEYRKTLSDGNEYQIVKEKNGYVIKKSLNEGLDYLEPMKNRKYYSSYSQAFKRLNLIAKEVNINEGYD | -0.511 |
| HMSVFGMEIGKTTEAEAGRMYRLNKEQLNPYSGGYQYSVNPKAIDFSGLEQVTLIFDEKKVLVYVQAV | 0.144 |
